# Measurements as given in the DeepSol protein solubility set.
# Assay: soluble on expression in E. coli; label from the status in PepcDB or PDB records
row,Sequence,soluble on expression in E. coli
1,RDIIQYIPARSSYGTPPFVPPGPSPYVGTGMQEYRKLRSTLDKSHSELKKNLKNETLKEVDELKSEAGLPGKAVSANDIRDEKSIVDALMDAKAKSLKAIEDRPANLYTASDFPQKSESMYQSQLLASRKFYGEFLDRHMSELAKAYSADIYKAQIAILKQTSQELENKARSLEAEAQRAAAEVEADYKARKANVEKKVQSELDQAGNALPQLTNPTPEQWLERATQLVTQAIANKKKLQTANNALIAKAPNALEKQKATYNADLLVDEIASLQARLDKLNAETARRKEIARQAAIRAANTYAMPANGSVVATAAGRGLIQVAQGAASLAQAISDAIAVLGRVLASAPSVMAVGFASLTYSSRTAEQWQDQTPDSVRYALGMDAAKLGLPPSVNLNAVAKASGTVDLPMRLTNEARGNTTTLSVVSTDGVSVPKAVPVRMAAYNATTGLYEVTVPSTTAEAPPLILTWTPASPPGNQNPSSTTPVVPKPVPVYEGATLTPVKATPETYPGVITLPEDLIIGFPADSGIKPIYVMFRDPRDVPGAATGKGQPVSGNWLGAASQGEGAPIPSQIADKLRGKTFKNWRDFREQFWIAVANDPELSKQFNPGSLAVMRDGGAPYVRESEQAGGRIKIEIHHKVRIADGGGVYNMGNLVAVTPKRHIEIHKGGK,not soluble
2,RDIKDLIVALDIGTSKVVAVVAEILPEGRFEVLGLGQHESRGMRKGVVVNIETTVNSIQRALEEAELMADCKIRDVYAGIAGSHIRSFNSSGMVAVKDKEVTATDVARVIETAKAVNIPTDQ,not soluble
3,RDSGTVWGALGHGINLNIPNFQMTDDIDEVRWERGSTLVAEFKRKMKPFLKSGAFEILANGDLKIKNLTRDDSGTYNVTVYSTNGTRILDKALDLRILE,soluble
4,REEYYVWDKEASINFIKPGQSDLFAEFEITDGMLDEIYQMTRNGEKCFPEFITHVKDKQGNVVSEVQRKLYVRKKPQYREEEAVTEVP,not soluble
5,RKPLQEPCTIFLIANGDLINPASRLLIPRKTLNQWDHVLQMVTEKITLRSGAVHRLYTLEGKLVESGAELENGQFYVAVGRDKFKKLPYGELLFD,soluble
6,RKVAAKMMQHQLEKHLKALNFDNPLFWTSLPTAADVCNAMNKRGLIYYCGDDFGALAGVDHQTVMEHERTLVDSADFILAASDKLAARFPDNKTTTLPHGVDFSLFSTPAEKASDLPNNGRKILGFYGSLSDWLDYRLIDQVAQHAPDWDLVFIGPNEFAHNPLPQRDNVHYLGPRAHHLLPSYSQHWDASWLPFVDNAQIKACNPLKLLE,not soluble
7,RLADRMSQEGWEDPGSSSAQAAAIEHDTFGRDNDGDVILLFTAKDGIAHSPSFDKIKKYLDSLKTDHSDHVDAVTSYFDKRNAQLISKDGTTAFAAVSLRGDGEQTLKDFRAIESDLHPQFPEVTVQVAGSTAVADALDKGMSGDIKRAE,not soluble
8,RLTRKEEWLREVLSSIREAIIVTNASGEIVLANPAASRLFMIEAARKRSIPVTNIEDAAMRELFERVQKRQSGIYNEELTAMTSKGKRTLKVTAVPVMRRGALFDGTVLVINDVT,not soluble
9,RMMEGAIAIADLTVGDVMVPRSQMVSLPVESDLQTITKQMVESGHSRFPVHGENKDEVLGILLAKDLLRGVSANHTITNVHELLRPVGMIPESKKLNVLLKEFRLSHNHMAIVVDEYGGVAGLVTIEDILEQIVGDID,soluble
10,RMNLFDLGTHHALVDYAHNPAGYEAVGAFVKNWPGERIGVVGGPGDRRDEDLILLGRIAAAVFDRIIVKEDDDKRGRHAGEVADLIRQGIQEENPNCQYETILDEQRALNVALDEAPQEALVVIFPES,not soluble
11,RPKLTDGVQSGDVQGDRALVWSRTDRPARMIVEWDTRSVFSEPRRLVSPVTDERLDYTARIDLRGLPADQSIFYRVRFEDARDGSLSKPWFGHLRSAPSEARNIRFVWSGDTCGQGFGINPDIGGMRIYEAMRRRQPDFFLHSGDTIYADGPIPERIETESGRIWRNRVTEAKSKVAETLDEFRGNYRYNLLDDNLRRFNAEVPQIWQWDDHETTNNWSSSKQLDERYQVKDIDVLAARARQAFLEYAPLRFQRQGRDGRIYRKVAYGPLLDVFVLDMRSYRGGNSANLQARRSAATDFLGREQLQWLKRELRGSRAQWKVIAADMPIGLCVPDGKDAQGRDRWEAIANGNDGAALGRELEIADLLRFVQRAGVRNTVWLTADVHYCAAHHYSPERAAFKDFAPFWEFVAGPLNAGSFGPNALDGTFGPQVMFQKAPLVQNSSPFAGYQFFGEVEIDAQSRALTVTLRDLDGEPVFSQELQPD,not soluble
12,RPNDIYVNMKTDFKAQLARCQKLLDGGARGQNACSEIYIHGLGLAINRAINIALQLQAGSFGSLQVAANTSTVELVDELEPETDTREPLTRIRNNSAIHIRVFRVTPK,not soluble
13,RQNLSSDIDILQSDTMPANAELAGLLQVAVGDTLFRIKVLSKVENRVVDYATMFFPAARLPGLPDAYLRHRSVTRALDDCGVADYTRRFTRVTARLPDAETVDYLGIPKNRPVLHVKSLNVDGEGRPVQYGVTCFNGDLVQLVMEQE,not soluble
14,RQVQKELGDVLVRLHNPVVLTPTTVQVTWTVDRQPQFIQGYRVMYRQTSGLQATSSWQNLDAKVPTERSAVLVNLKKGVTYEIKVRPYFNEFQGMDSESKTVRTTEE,soluble
15,RRLETQKEAEANRGYGKPSLGGPFHLEDMYGNEFTEKNLLGKFSIIYFGFSNCPDICPDELDKLGLWLNTLSSKYGITLQPLFITCDPARDSPAVLKEYLSDFHPSILGLTGTFDEVKNACKKYRVYFSTPPNVKPGQDYLVDHSIFFYLMDPEGQFVDALGRNYDEKTGVDKIVEHVKSYVPAEQRAKQKEAWYSFLFK,soluble
16,RSDSMILMTVNPKTKKTTMMSLERDILTRIESGNGQAHEAKLNSAYADGGAELAIETIQKMMNIHIDRYVMVNMRGLQKLVDAVGGITVNNILGFPISISDQEEFNTISIGVGEQHIGGEEALVYARMRYQDPEGDYGRQKRQREVIQKVMEKALS,not soluble
17,RSTIGAGQKVNVEFVSANPTGPMHVGHVRGAVVGDALARLLAYAGWNVTREYYINDGGAQVDVLARSAFERYREAHGLEPEIREGLYPGDYLIPVGEALKAKYGDSLLDKGEQHWLTEVREFATEMMMQMIREDLAALGVEMDVYSSEKALYGTGKIEAALDRLKEMDLIYEGVLEPPKGKTPEDWEPREQTLFRSTAHGDDVDRPVKKSDGSWTYFAPDIAYHYDKVTRGFDQLIDIFGADHGGYVKRMKAAVAALSAGRVPLDIKLIQLVKLWKNGEPFKMSKRAGTYVTLRDVVEQVGTDVTRFVMLTRKNDATLDFDFDKVLEQSKENPVFYVQYANARINSVLRKAREQGMDVSDA,not soluble
18,RTGAELLALTTSTGKSIAQLMWDNERAWHTEAETRTGLLKIWDVMQSCVARGCGIGNPDADGTLPGPFQVKRRAPQLYRALTGNPERALQDPLSMVDWINLYAIAVNEENAAGGRVVTAPTNGAAGIIPAVLHYYTRFTPGANEQGVIDFLMTAAAIGILYKLNASISGAEVGCQGEVGVACSMAAGALAAVLGGTPQQVENAAEIGMEHNLGLTCDPVGGMVQIPCIERNAMASVKAVNAARMALRGDGSHYVSLDSVIKTMRETGADMKTKYKETSRGGLAVN,not soluble
19,RTRKGIELIPLDQVIYFIADHKYVTLRHEGGEVLLDEPLKALEDEFGDRFVRIHRNALVARKRIESMKRTPVGHFELFLRGLNGDALIVSRRHVAGVRKMMQQL,not soluble
20,SAAPRVFPLSCAVQQYAWGKMGSNSEVARLLASSDPLAQIAEDKPYAELWMGTHPRGDAKILDNRISQKTLSQWIAENQDSLGSKVKDTFNGNLPFLFKVLSVETPLSIQAHPNKELAEKLHLQAPQHYPDANHKPEMAIALTPFQGLCGFRPVEEIVTFLKTAAGNNMEDIFGELLLQLHQQYPGDIGCFAIYFLNLLTLKPGEAMFLEANVPHAYLKGDCVECMACSDNTVRAGLTPKFIDVPTLCEMLSYTPSSSKDRLFLPTRSQEDPYLSIYDPPVPDFTIMKTEVPGSVTEYKVLALDSASILLMVQGTVIASTPTTQTPIPLQRGGVLFIGANESVSLKLTEPKDLLIFRACCLL,soluble
21,SADIYIMGHRYPDMDALGSAFGVARLASFNNRKAWIVLDENEIIPDVKRVLEAIKEYPELEERIISPKEAMKRKKESSLLVMVDYHKPSLSISQELYERFDKVVIIDHHRRGDEFPAKPLLSYIESSASSASELVTELIEYQSNSANKLQAFEATMMLAGIVVDTKSFNTRTTARTFDVASYLRTCGADSSLVQYLLSSDL,not soluble
22,SAEKQAGLVGEPDPEGSSPGTSESWNYDSNCVFCRVAAGQEPKTELFHCENEDLVCFKDIKPAALYHYLVVPKKHIGSCKDLNKDHIEMVESMVAAGKTMLERNNFTDFTDVRMGFHVPPFCSISHLHLHVIAPVKEFGFLSKLVYRQDSYWFVTVDYLLEKLRK,soluble
23,SAESWLRLSGAGPAEEAGPEGGLEEPDALDDSLTSLQWLQEFSILNAKAPALPPGGTDPHGYHQVPGSAAPGSPLAADPACLGQPHTPGKPTSSCTSRSAPPGLQAPPPDDVDYATNPHVKPPYSYATLICMAMQASKATKITLSAIYKWITDNFCYFRHADPTWQNSIRHNLSLNKCFIKVPREKDEPGKGGFWRIDPQYAERLLSGAFKKRRLPPVHIHPAFARQAAQEPSAVPRAGPLTVNTEAQQLLREFEEATGEAGWGAGEGRLGHKRKQPLPKRVAKVPRPPSTLLPTPEEQGELEPLKGNFDWEAIFDAGTLGGELGALEALELSPPLSPASHVDVDLTIHGRHIDCPATWGPSVEQAADSLDFDETFLATSFLQHPWDESGSGCLPPEPLFEAGDATLASDLQDWASVGAFL,soluble
24,SAFPIDLRGQTAFVAGVADSHGYGWAIAKHLASAGARVALGTWPPVLGLFQKSLQSGRLDEDRKLPDGSLIEFAGVYPLDAAFDKPEDVPQDIKDNKRYAGVDGYTIKEVAVKVKQDLGNIDILVHSLANGPEVTKPLLETSRKGYLAASSNSAYSFVSLLQHFGPIMNEGGSAVTLSYLAAERVVPGYGGGMSSAKAALESDTRTLAWEAGQKYGVRVNAISAGPLKSRAASAIGKSGEKSFIDYAIDYSYNNAPLRRDLHSDDVGGAALFLLSPLARAVSGVTLYVDNGLHAMGQAVDSRSMPPLQRATQEIN,soluble
25,SAFQKAASLLGAPIGHDFCVISLSDLMTPWERIERRILAAAQADFVTAVYNPKSDGRYWQIYRLREIFLREGRSPETPVGYVRQAGREEQEIHITTLAAFDPETVDMFTVVLIGNSQTY,not soluble
26,SAFVAALSAAGLPTDAFVFEGFLPTRGKRRLEKLANLKGEQRVVIFYEAPGRLQAALADMREVLGDRHVVVARELTKIHEEFVRGRVSFVAEHFAAVDVKGEVVILVAPAPAP,soluble
27,SAGINYVQNYNGNLGDFTYDESAGTFSMYWEDGVSSDFVVGLGWTTGSSNAITYSAEYSASGSASYLAVYGWVNYPQAEYYIVEDYGDYNPCSSATSLGTVYSDGSTYQVCTDTRTNEPSITGTSTFTQYFSVRESTRTSGTVTVANHFNFWAHHGFGNSDFNYQVVAVEAWSGAGSASVTISS,soluble
